{"source": "patent US7985889B2", "about": "“AtMIN7 mediated disease resistance to Pseudomonas syringae in Arabidopsis” (priority 2007, dated 2011)", "molecules": {"B1": {"name": "6×His-HopM1301-712: 6×His-tagged C-terminal HopM1 fragment, amino acids 301-712 (protein)", "chain": "GPIVAAAVPQFLSSMTHLGYVRLSTSDKLRDTIPETSSDANMLKASIIGMVAGIAHETVNSVVKPMFQAALQKTGLNERLNMVPMKAVDTNTVIPDPFELKSEHGELVKKTPEEVAQDKAFVKSERALLNQKKVQGSSTHPVGELMAYSAFGGSQAVRQMLNDVHQINGQTLSARALASGFGGAVSASSQTLLQLKSNYVDPQGRKIPVFTPDRAESDLKKDLLKGMDLREPSVRTTFYSKALSGIQSSALTSALPPVTAQAEGASGTLSAGAILRNMALAATGSVSYLSTLYTNQSVTAEAKALKAAGMGGATPMLDRTETALNNIRHPNRESLPHTFQKSTLSGIPRVAENAYHMGRGALQLPTQMAVDTVRVVDEGVLNAVASAREALKQPTKDDDALRALEEGLLDPR", "modifications": "left off: small tags and cut ends"}, "B2": {"name": "HopM1101-712: HopM1 truncated derivative lacking the first 100 aa (SEQ ID NO:98) (protein, listed as Pseudomonas syringae)", "chain": "LLQAFKAEHGTAPVSGAPMISSRAALLIGSLLQAEPLPFEVMAEKLSPERYQLKQFQGSDLQQRLEKFAQPGQIPDKAEVGQLIKGFAQSVADQLEHFQLMHDASPATVGQHAKADKATLAVSQTALGEYAGRASKAIGEGLSNSIASLDEHISALDLTLQDAEQGNKESLHADRQALVDAKTTLVGLHADFVKSPEAKRLASVAAHTQLDNVVSDLVTARNTVGGWKGAGPIVAAAVPQFLSSMTHLGYVRLSTSDKLRDTIPETSSDANMLKASIIGMVAGIAHETVNSVVKPMFQAALQKTGLNERLNMVPMKAVDTNTVIPDPFELKSEHGELVKKTPEEVAQDKAFVKSERALLNQKKVQGSSTHPVGELMAYSAFGGSQAVRQMLNDVHQINGQTLSARALASGFGGAVSASSQTLLQLKSNYVDPQGRKIPVFTPDRAESDLKKDLLKGMDLREPSVRTTFYSKALSGIQSSALTSALPPVTAQAEGASGTLSAGAILRNMALAATGSVSYLSTLYTNQSVTAEAKALKAAGMGGATPMLDRTETALNNIRHPNRESLPHTFQKSTLSGIPRVAENAYHMGRGALQLPTQMAVDTVRVVDEGVLNAVASAREALKQPTKDDDALRALEEGLLDPR"}, "B3": {"name": "full-length HopM1: Pst DC3000 HopM1, a 712-aa type III effector virulence protein (SEQ ID NO:34) (protein)", "chain": "MISSRIGGAGGVELSRVNQQHDTVPAQTAHPNAVTAGMNPPLTPDQSGSHATESSSAGAARLNVAARHTQLLQAFKAEHGTAPVSGAPMISSRAALLIGSLLQAEPLPFEVMAEKLSPERYQLKQFQGSDLQQRLEKFAQPGQIPDKAEVGQLIKGFAQSVADQLEHFQLMHDASPATVGQHAKADKATLAVSQTALGEYAGRASKAIGEGLSNSIASLDEHISALDLTLQDAEQGNKESLHADRQALVDAKTTLVGLHADFVKSPEAKRLASVAAHTQLDNVVSDLVTARNTVGGWKGAGPIVAAAVPQFLSSMTHLGYVRLSTSDKLRDTIPETSSDANMLKASIIGMVAGIAHETVNSVVKPMFQAALQKTGLNERLNMVPMKAVDTNTVIPDPFELKSEHGELVKKTPEEVAQDKAFVKSERALLNQKKVQGSSTHPVGELMAYSAFGGSQAVRQMLNDVHQINGQTLSARALASGFGGAVSASSQTLLQLKSNYVDPQGRKIPVFTPDRAESDLKKDLLKGMDLREPSVRTTFYSKALSGIQSSALTSALPPVTAQAEGASGTLSAGAILRNMALAATGSVSYLSTLYTNQSVTAEAKALKAAGMGGATPMLDRTETALNNIRHPNRESLPHTFQKSTLSGIPRVAENAYHMGRGALQLPTQMAVDTVRVVDEGVLNAVASAREALKQPTKDDDALRALEEGLLDPR", "modifications": "Pseudomonas syringae pv. tomato str. DC3000"}, "B4": {"name": "HopM11-300: N-terminal protective fragment of HopM1, amino acids 1-300 (SEQ ID NO:82) (protein, listed as Pseudomonas syringae)", "chain": "MISSRIGGAGGVELSRVNQQHDTVPAQTAHPNAVTAGMNPPLTPDQSGSHATESSSAGAARLNVAARHTQLLQAFKAEHGTAPVSGAPMISSRAALLIGSLLQAEPLPFEVMAEKLSPERYQLKQFQGSDLQQRLEKFAQPGQIPDKAEVGQLIKGFAQSVADQLEHFQLMHDASPATVGQHAKADKATLAVSQTALGEYAGRASKAIGEGLSNSIASLDEHISALDLTLQDAEQGNKESLHADRQALVDAKTTLVGLHADFVKSPEAKRLASVAAHTQLDNVVSDLVTARNTVGGWKGA"}}, "key": {"[1]": {"tested_on": "transgenic plants expressing full-length HopM1", "experiment": "DEX spraying of transgenic plants expressing full-length HopM1: leaf necrosis", "type": "in vivo, Arabidopsis", "experimental": "(§1) Following inoculation, infected plants were monitored daily over a 3- to 4-day period for symptom development and bacterial multiplication. For experiments described in FIGS. 1 and 5, plants were sprayed with 30 μM dexamethasone (DEX) 24 h before bacterial inoculation (1×10^6 cfu/ml)."}, "[2]": {"tested_on": "HopM1-mediated destabilization of AtMIN7", "experiment": "Immunoblot of HopM1-mediated destabilization of AtMIN7 with protease/proteasome inhibitors", "type": "cell-based", "details": "N. benthamiana leaves co-expressing AtMIN7::HA and 6×His::HopM11-712", "source_text": "AtMIN-HA and 6×His-HopM1 proteins were detected using the HA and 6×His epitope antibodies, respectively. […] AtMIN7::HA and 6×His::HopM11-712 proteins were detected with HA and 6×His epitope antibodies, respectively."}, "AtMIN7-HA": {"target": "T1, AtMIN7-HA (Arabidopsis thaliana, UniProt F4IXW2, DEL212-213/INS429[…])", "T1 construct": "expressed in transfected cells; host or cells: Nicotiana benthamiana leaves, Agrobacterium tumefaciens C58C1 co-infiltration (pBI121-AtMIN or pBAR1-AtMIN)", "T1 sequence (F4IXW2 with tags, fused parts or gaps DEL212-213/INS429[withheld])": "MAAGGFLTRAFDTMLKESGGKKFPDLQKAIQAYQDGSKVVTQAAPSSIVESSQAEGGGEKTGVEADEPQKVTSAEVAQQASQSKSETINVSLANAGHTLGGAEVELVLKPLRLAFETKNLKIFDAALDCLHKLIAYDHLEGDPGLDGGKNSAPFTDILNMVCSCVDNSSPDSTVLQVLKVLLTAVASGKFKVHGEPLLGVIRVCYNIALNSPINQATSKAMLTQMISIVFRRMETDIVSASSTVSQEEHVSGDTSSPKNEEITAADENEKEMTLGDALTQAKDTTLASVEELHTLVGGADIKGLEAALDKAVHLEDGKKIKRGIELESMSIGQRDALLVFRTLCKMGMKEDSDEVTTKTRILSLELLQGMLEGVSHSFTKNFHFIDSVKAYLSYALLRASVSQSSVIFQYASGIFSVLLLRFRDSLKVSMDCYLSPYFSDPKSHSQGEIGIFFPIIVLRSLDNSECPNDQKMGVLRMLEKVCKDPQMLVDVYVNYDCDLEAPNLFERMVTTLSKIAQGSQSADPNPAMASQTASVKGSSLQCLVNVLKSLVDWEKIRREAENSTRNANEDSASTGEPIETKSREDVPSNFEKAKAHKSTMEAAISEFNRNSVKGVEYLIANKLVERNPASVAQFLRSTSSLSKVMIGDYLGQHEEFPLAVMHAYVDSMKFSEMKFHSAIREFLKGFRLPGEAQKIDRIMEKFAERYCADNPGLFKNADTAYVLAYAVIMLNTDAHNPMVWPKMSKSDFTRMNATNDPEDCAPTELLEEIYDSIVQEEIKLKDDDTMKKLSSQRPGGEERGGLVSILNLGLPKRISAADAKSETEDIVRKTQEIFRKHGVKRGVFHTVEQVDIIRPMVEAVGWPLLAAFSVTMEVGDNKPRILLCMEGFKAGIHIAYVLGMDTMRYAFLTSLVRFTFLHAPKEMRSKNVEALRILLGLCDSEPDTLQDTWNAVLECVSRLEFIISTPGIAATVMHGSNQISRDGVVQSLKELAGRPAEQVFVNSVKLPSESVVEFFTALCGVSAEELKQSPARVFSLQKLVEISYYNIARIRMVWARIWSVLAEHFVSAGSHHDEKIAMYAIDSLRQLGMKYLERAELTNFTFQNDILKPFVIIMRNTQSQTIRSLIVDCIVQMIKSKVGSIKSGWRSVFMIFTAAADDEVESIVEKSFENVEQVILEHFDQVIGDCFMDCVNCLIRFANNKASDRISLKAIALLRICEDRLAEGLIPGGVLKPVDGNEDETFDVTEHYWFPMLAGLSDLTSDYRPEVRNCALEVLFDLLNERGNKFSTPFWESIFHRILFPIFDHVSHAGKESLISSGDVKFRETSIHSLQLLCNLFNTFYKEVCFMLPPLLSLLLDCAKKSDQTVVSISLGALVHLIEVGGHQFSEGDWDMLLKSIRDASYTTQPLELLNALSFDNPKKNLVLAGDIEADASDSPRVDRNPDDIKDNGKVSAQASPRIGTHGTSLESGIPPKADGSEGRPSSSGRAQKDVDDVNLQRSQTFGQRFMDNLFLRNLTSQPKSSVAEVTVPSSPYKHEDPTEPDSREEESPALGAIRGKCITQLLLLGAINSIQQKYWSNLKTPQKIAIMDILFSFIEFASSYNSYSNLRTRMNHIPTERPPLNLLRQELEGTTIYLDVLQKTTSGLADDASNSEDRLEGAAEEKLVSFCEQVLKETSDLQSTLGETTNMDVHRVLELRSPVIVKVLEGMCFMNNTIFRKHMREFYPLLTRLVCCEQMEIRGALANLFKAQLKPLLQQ", "experiment": "Protein pull-down assay and immunoblot in N. benthamiana leaves", "type": "binding", "details": "transient co-expression in N. benthamiana leaves, Ni-NTA pull-down", "excerpt": "N. benthamiana plants were transiently transformed with HopM1 and AtMIN proteins. In brief, fully expanded N. benthamiana leaves were co-infiltrated with Agrobacterium tumefaciens C58 C1 (for an example of co-infiltration techniques, see, Hellens, et al. (2005) Plant Methods, 1:13; herein incorporated by reference) comprising plasmids and genes described herein (for example, see, Bechtold, et al. (1993) Comptes Rendus De L Academie Des Sciences Serie Iii-Sciences De La Vie-Life Sciences 316(10):1194-1199; herein incorporated by reference).\nIn brief: leaf disc fractions were homogenized in 1×SDS-polyacrylamide gel electrophoresis (PAGE) sample buffer, boiled for 5 min, and centrifuged for 2 minutes. Proteins in the supernatant were separated on SDS-PAGE gels and transferred to Immobilon-P membrane for immunoblotting procedures (Millipore Corp., Bedford, Mass.).\nProtein pull-down analysis methods: N. benthamiana leaf discs were homogenized in lysis buffer (50 mM Tris-HCl pH=8.0, 250 mM NaCl, 10 mM β-mercaptoethanol, 1% Triton X100, 1 mM PMSF, plant protease inhibitor cocktail [Sigma Co.]). Total protein extracts were collected after centrifugation of the homogenate at 20,000-x g for 15 min at 4° C. to remove insoluble materials. […] AtMIN10-HA was detected using the HA epitope antibody."}, "Pst DC3000 ΔCEL mutant": {"tested_on": "Pst DC3000 ΔCEL mutant", "experiment": "Complementation of virulence defect in transgenic Arabidopsis expressing HopM1 or truncated derivatives", "type": "in vivo", "details": "protein expressed in transgenic Arabidopsis after DEX", "experimental": "as §1\n(§2) Leaves were harvested and surface sterilized as follows: 1) whole leaves were removed from a host plant and gently mixed in a 70% ethanol solution for 1 minute. Leaves were blotted briefly on paper towels then rinsed in sterile distilled water for 1 minute, then blotted dry on paper towels. Leaf disks were excised from leaves with a 0.5 cm^2 or smaller cork borer, depending on the size of the sample leaves; 2) leaf disks from the leaves of 2 or more independent replicate plants were pooled for a single tissue sample and placed in a 1.5-mL microfuge tube with 100 μL sterile distilled water, the amount of leaf tissue per tube was recorded as leaf surface area. Three or more samples were harvested for each time point. […] The number of serial dilutions necessary to get countable colonies were determined for each sample, however dilutions to 10^−7 were usually sufficient for any bacterial strain; 7) The samples were plated on the appropriate medium (e.g., Low salt Luria Bertani) supplemented with the necessary antibiotics to select for the specific inoculated bacterial strain. […]"}, "AtMIN7": {"tested_on": "AtMIN7", "experiment": "Detection of polyubiquitinated AtMIN7 in planta (western blot, ubiquitin antibody)", "type": "cell-based, Nicotiana benthamiana", "details": "MG132-treated N. benthamiana leaves", "excerpt": "Left: AtMIN7::HA and 6×His::HopM1-300, 6×His::HopM301-712 or 6×His::HopM1-712 were transiently co-expressed in MG132-treated N. benthamiana leaves. Ubiquitinated proteins were detected by western blot (WB) with a polyclonal ubiquitin (Ub) antibody (Sigma Co.). Right: AtMIN7::HA and 6×His::HopM1-712 were transiently co-expressed in 1% DMSO(−)- or MG132-treated N. benthamiana leaves. AtMIN7 was immunoprecipitated (IP) using a polyclonal AtMIN7 antibody. Ubiquitinated AtMIN7 protein was detected by western blot (WB) with a polyclonal ubiquitin (Ub) antibody (Sigma Co.). See Materials and Methods for transient expression and immunoprecipitation of AtMIN7 and HopM1 in N. benthamiana leaves."}, "Pst DC3000": {"tested_on": "Pst DC3000", "experiment": "Bacterial multiplication and disease symptoms in transgenic Arabidopsis expressing HopM1 truncated derivatives", "type": "in vivo", "details": "fragment expressed in transgenic Arabidopsis", "experimental": "as §1, §2"}, "[3]": {"tested_on": "Pst DC3000 ΔCEL mutant-pORF43 bacteria", "experiment": "Bacterial multiplication and disease symptoms in transgenic Arabidopsis expressing HopM1 truncated derivatives", "type": "in vivo", "details": "fragment expressed in transgenic Arabidopsis, compared with Col-0 gl1 or other truncated derivatives", "experimental": "as §1, §2"}}, "note": "Residues, ends and D or L forms follow the SMILES beside them. *: point of attachment. Cbz = O=C(OCc1ccccc1)*", "data": [{"molecule": "C[C@@H]1C[C@H]2[C@@H]3CCC4=CC(=O)C=C[C@]4(C)[C@@]3(F)[C@@H](O)C[C@]2(C)[C@@]1(O)C(=O)CO", "note": "[DEX, dexamethasone]", "values": [{"measurement": "leaf necrosis", "setting": "[1]; 0.003 μM DEX spray", "value": "did not induce leaf necrosis"}, {"measurement": "time to rapid leaf necrosis", "setting": "[1]; 30 μM DEX spray", "value": "≤ 10", "unit": "h"}]}, {"molecule": "CC(C)C[C@@H](C=O)NC(=O)[C@H](CC(C)C)NC(=O)[C@H](CC(C)C)NC(=O)OCc1ccccc1", "note": "[MG132] (Cbz-Leu-Leu-Leu-aldehyde)", "values": [{"measurement": "effect on HopM1-mediated destabilization of AtMIN7", "setting": "[2]", "value": "blocked"}]}, {"molecule": "CC[C@H](C)[C@H](NC(=O)[C@H]([C@@H](C)CC)N(C)C(C)=O)C(=O)N[C@H](C(=O)N[C@@H](CC(C)C)C(=O)[C@@]1(C)CO1)[C@@H](C)O", "note": "[epoxomicin]", "values": [{"measurement": "effect on HopM1-mediated destabilization of AtMIN7", "setting": "[2]", "value": "blocked"}]}, {"molecule": "B1", "values": [{"measurement": "physical interaction with AtMIN7-HA", "setting": "AtMIN7-HA", "value": "no interaction"}]}, {"molecule": "B2", "values": [{"measurement": "complementation of the virulence defect (multiplication, chlorosis) of the Pst DC3000 ΔCEL mutant", "setting": "Pst DC3000 ΔCEL mutant", "value": "partially restored"}]}, {"molecule": "B3", "values": [{"measurement": "polyubiquitination of AtMIN7 in vivo", "setting": "AtMIN7", "value": "enhanced"}, {"measurement": "complementation of the virulence defect (multiplication, chlorosis) of the Pst DC3000 ΔCEL mutant", "setting": "Pst DC3000 ΔCEL mutant", "value": "almost fully complemented"}]}, {"molecule": "B4", "values": [{"measurement": "physical interaction with AtMIN7-HA", "setting": "AtMIN7-HA", "value": "physical interaction"}, {"measurement": "susceptibility to Pst DC3000", "setting": "Pst DC3000", "value": "still susceptible"}, {"measurement": "disease symptoms (necrosis and chlorosis) and bacterial multiplication within plants", "setting": "[3]", "value": "significantly reduced"}]}]}
